From PMC3856898 (FEBS letters, 2013)
Where “and” joins values, the source holds several entries; their conditions need not be identical. Equal entries are not always repeated.

Experiments:
Nrp1 cytoplasmic domain [1] = molecular target: T1, Nrp1 cytoplasmic domain (UniProt P97333 880-923); assay: ITC
Nrp1 cytoplasmic domain [2] = molecular target: T1, Nrp1 cytoplasmic domain; assay: SPR

T1 sequence (P97333 880-923): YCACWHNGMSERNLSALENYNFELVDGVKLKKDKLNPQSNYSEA

- Kd (Nrp1 cytoplasmic domain [1]): 12.1 µM and 12.9 µM
- Kd (Nrp1 cytoplasmic domain [2]): 9.6 ± 1.2 µM
B1: FlnA repeats 23-24 (domain or fragment)
chain: GHGGDPGLVSAYGAGLEGGVTGNPAEFVVNTSNAGAGALSVTIDGPSKVKMDCQECPEGYRVTYTPMAPGSYLISIKYGGPYHIGGSPFKAKVTGPRLVSNHSLHETSSVFVDSLTKATCAPQHGAPGPGPADASKVVAKGLGLSKAYVGQKSSFTVDCSKAGNNMLLVGVHGPRTPCEEILVKHVGSRLYSVSYLLKDKGEYTLVVKWGDEHIPGSPYRVVVP
